Reference: patent publication US20190016778A1 (Xencor, published 2019)

Target: T1, human CD8 (captured on Octet biosensor) (human, UniProt P01732 22-182)
T1 construct: also called recombinant human CD8a
Test: method not given; Octet (BLI) is the method of this example

- Kd: 12 nM
B1: humanized OKT8 variant (H2L1) (antibody)
chain 1: QVQLVQSGAEVKKPGASVKVSCKASGFNIKDTYIHWVRQAPGKGLEWMGRIDPANDNTLYASKFQGRVTITADTSINTAYMELSRLRSDDTAVYYCGRGYGYYVFDHWGQGTTVTVSSASTKGPSVFPLAPSSKSTSGGTAALGCLVKDYFPEPVTVSWNSGALTSGVHTFPAVLQSSGLYSLSSVVTVPSSSLGTQTYICNVNHKPSNTKVDKKVEPKSCDKTHTCPPCPAPPVAGPSVFLFPPKPKDTLMISRTPEVTCVVVDVKHEDPEVKFNWYVDGVEVHNAKTKPREEQYNSTYRVVSVLTVLHQDWLNGKEYKCKVSNKALPAPIEKTISKAKGQPREPQVYTLPPSREQMTKNQVKLTCLVKGFYPSDIAVEWESNGQPENNYKTTPPVLDSDGSFFLYSKLTVDKSRWQQGNVFSCSVMHEALHNHYTQKSLSLSPGK
chain 2: DIKMTQSPSSLSASVGDRVTITCRTSRSISQYLAWYQEKPGKTNKLLIYSGSTLQSGIPSRFSGSGSGTDFTLTISSLQPEDFATYYCQQHNENPLTFGAGTKLEIKRTVAAPSVFIFPPSDEQLKSGTASVVCLLNNFYPREAKVQWKVDNALQSGNSQESVTEQDSKDSTYSLSSTLTLSKADYEKHKVYACEVTHQGLSSPVTKSFNRGEC
chain 3: EPKSSDKTHTCPPCPAPPVAGPSVFLFPPKPKDTLMISRTPEVTCVVVDVKHEDPEVKFNWYVDGVEVHNAKTKPREEEYNSTYRVVSVLTVLHQDWLNGKEYKCKVSNKALPAPIEKTISKAKGQPREPQVYTLPPSREEMTKNQVSLTCDVSGFYPSDIAVEWESDGQPENNYKTTPPVLDSDGSFFLYSKLTVDKSRWEQGDVFSCSVMHEALHNHYTQKSLSLSPGK
